Source: patent publication CN111995674A (INST MILITARY MEDICINE ACADEMY MILITARY SCIENCES PLA, dated 2020)

Target: RBD重组蛋白 (SARS-CoV-2 S蛋白RBD区, 毕赤酵母GJK0601表达) (SARS-CoV-2)

B1: 人鼠嵌合全抗体mhC3 (antibody, V domains shown)
VH: EVQLVESGGDLVKPGGSLKLSCAASGFTFNTYAMNWVRQTPGKGLEWVARIRSKSNNYATYYADSVKDRFTISRDDSQSMLYLQMNNLKTEDTAMYYCVTPYYGNYADWFTYWGQGTSVTVSS
VL: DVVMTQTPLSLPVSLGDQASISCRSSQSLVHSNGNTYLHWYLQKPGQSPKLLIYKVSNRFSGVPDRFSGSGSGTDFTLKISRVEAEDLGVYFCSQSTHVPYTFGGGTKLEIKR
notes: also called mhC3抗体; C3 (图5、图6)
Q: With B1 as the binder, how does the EC50 read?
A: The EC50 was 0.0129 nM.
